The supplement of paper PMC12667976

B1: library; numbered along this chain (parent)
chain: MATDAALRRLLRLHRTEIAVAVDSAFPLLHALADHDVVPEDKFQETLHLKEKEGCPQAFHALLSWLLTQDSTAILDFWRVLFKDYNLERYGRLQPILDSFPKDVDLSQPRKGRKPPAVPKALVPPPRLPTKRKASEEARAAAPAALTPRGTASPGSQLKAKPPKKPESSAEQQRLPLGNGIQTMSASVQRAVAMSSGDVPGARGAVEGILIQQVFESGGSKKCIQVGGEFYTPSKFEDSGSGKNKARSSSGPKPLVRAKGAQGAAPGGGEARLGQQGSVPAPLALPSDPQLHQKNEDECAVCRDGGELICCDGCPRAFHLACLSPPLREIPSGTWRCSSCLQATVQEVQPRAEEPRPQEPPVETPLPPGLRSAGEEVRGPPGEPLAGMDTTLVYKHLPAPPSAAPLPGLDSSALHPLLCVGPEGQQNLAPGARCGVCGDGTDVLRCTHCAAAFHWRCHFPAGTSRPGTGLRCRSCSGDVTPAPVEGVLAPSPARLAPGPAKDDTASHEPALHRDDLESLLSEHTFDGILQWAIQSMARPAAPFPS

Variants of: B1
Assay: AIRE transcriptional activation functional score (insulin promoter-GFP; nonsense median 0, synonymous median 1) (normalised score); higher = higher AIRE activity (more reporter activation)
Conditions: with insulin promoter-GFP reporter in HEK293
Experimental: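 Deep mutational scan of full-length human AIRE (codon-optimized cDNA, DT-POPCode NNN libraries over three regions) integrated at a Bxb1 landing pad in HEK293 cells carrying an insulin core promoter-GFP reporter at a Flp-In site. Cells were sorted for the top 10% GFP about 14 days after transfection. Variant frequency log-ratios (select vs non-select, TileSeq) were rescaled so that the nonsense median is 0 and the synonymous median is 1, then averaged over biological replicates.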

AIRE transcriptional activation functional score of substitutions, site by site:
Q189: E 1.01; K 0.969; A 1.25; W -1.03; L 0.207; R 0.813; V -0.071; F -0.181; D 0.724; I 0.169; N 0.838; T 0.669; C 0.0413; S 1.21; M -0.352; Y 0.0452; H 0.892; P 0.54; G 0.415
R190: Y 0.797; N 1.15; G 0.592; Q 1.24; E 0.705; D 0.292; P 0.955; C 0.414; A 0.878; K 0.53; T 0.755; I 0.118; H 0.858; W 0.069; L 0.356; S 0.821; M 0.19; V 0.094; F -0.277
S187: C 0.918; E 0.48; T 1.17; D 0.711; V 0.398; L 0.063; R 1.18; Y 0.152; I 0.599; K 0.853; P 0.621; W 0.0947; G 0.706; M 0.503; Q 0.823; H 1.28; N 0.716; A 0.982; F -0.0306
A186: G 0.548; V -0.207; L 0.0294; S 0.95; W 0.156; K 0.646; Q 0.6; P 0.846; R 0.648; N 0.421; M 0.198; H 0.849; T 0.873; Y -0.165; I -0.146
V192: Y 1.19; W 0.522; A 0.598; G 0.777; R 0.721; K 1.14; S 0.697; M 1.08; F 0.922; C 0.889; P 0.706; I 1.13; T 0.917; H 0.776; N 0.244; L 1.02; E 0.516; Q 0.811; D 0.613
A191: P 0.647; Q 0.489; V 0.157; L 0.166; G 0.958; M 0.662; H 1.25; N 0.144; W 0.116; F -0.339; Y -0.337; C 1.08; T 1.27; I -0.149; R 1.2; E 0.164; K 0.485; D 0.948; S 1.03
M194: N 0.73; R 0.732; I 1.08; H 0.96; E 0.601; D -0.299; F 0.394; T 0.367; L 0.99; P 0.602; W 0.214; A 0.708; V 1.31; Y 0.702; Q 0.907; G 0.75; K 0.544; C 0.639; S 0.554
V188: Q 0.798; P 0.629; N 0.669; H 0.687; R 0.52; D 0.779; E 0.556; L 1.24; F 0.939; W 0.518; Y 1.56; K 0.779; T 0.434; M 1.32; C 0.891; G 0.504; S 0.447; I 1.01; A 0.635
A193: N 1.14; C 1.39; R 0.93; Y 1.05; H 1.81; V 0.147; S 0.899; T 1.15; L 0.279; W -1.35; K 0.858; M 0.563; F 0.268; D 1.03; P 0.42; Q 1.88; G 0.791; I 0.281; E 0.394
